We go through 2 molecules from patent publication US20250074980A1 (BRIGHAM AND WOMEN S HOSPITAL, published 2025).

Assay [1] has as its target T1, CEACAM5 on transfected HeLa cells (human, UniProt P06731 35-685).
T1 construct: whole, on cells; also called HeLa-CEACAM5; HeLa C5
T1 sequence (looked up): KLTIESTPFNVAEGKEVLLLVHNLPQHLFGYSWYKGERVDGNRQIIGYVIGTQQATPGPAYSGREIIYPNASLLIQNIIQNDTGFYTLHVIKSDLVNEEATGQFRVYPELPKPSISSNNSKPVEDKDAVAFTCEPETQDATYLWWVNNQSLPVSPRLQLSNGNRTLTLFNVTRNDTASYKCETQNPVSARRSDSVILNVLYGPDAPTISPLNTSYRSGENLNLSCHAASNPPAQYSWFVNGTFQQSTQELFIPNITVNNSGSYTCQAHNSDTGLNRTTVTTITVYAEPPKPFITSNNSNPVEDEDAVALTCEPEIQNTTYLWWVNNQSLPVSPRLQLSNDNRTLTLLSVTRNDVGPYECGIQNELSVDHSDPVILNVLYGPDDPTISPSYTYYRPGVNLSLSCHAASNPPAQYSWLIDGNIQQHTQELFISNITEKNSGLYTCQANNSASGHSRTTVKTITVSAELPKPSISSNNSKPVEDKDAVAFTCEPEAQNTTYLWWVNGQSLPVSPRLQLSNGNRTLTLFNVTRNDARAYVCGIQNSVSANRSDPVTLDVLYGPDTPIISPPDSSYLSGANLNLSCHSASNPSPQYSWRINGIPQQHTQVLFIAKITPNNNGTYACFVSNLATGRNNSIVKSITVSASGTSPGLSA
Briefly: flow cytometry titration, HeLa-CEACAM5 transfectants, anti-human IgG4 FITC. As for the experimental part:
FIGS. 31A and 31B show flow cytometry analyses of stable HeLa CEACAM1 (HeLa C1) transfectant, stable HeLa CEACAM3 transfectant (HeLa C3), stable HeLa CEACAM5 transfectant (HeLa C5), stable HeLa CEACAM6 transfectant (HeLa C6), and stable HeLa CEACAM8 transfectant (HeLa C8). FIG. 31A: 5×10\hat{ }4 indicated HeLa transfectants were washed with staining buffer and CP08H03/Vκ8 S29A (labeled “CP08”, left) or CEACAM1 antibody CM-24 was incubated at room temperature for 30 min, washed twice with staining buffer, and stained for anti-human IgG4 Fluorescein isothiocyanate (FITC) conjugated secondary antibody at room temperature for 20 min. Fluorescence intensities were determined by flow cytometry. Live cells were determined by 4′,6-diamidino-2-phenylindole (DAPI) staining as shown on the y-axis. Staining with the respective CEACAM1 antibody is shown on the x-axis. […]
The cervical adenocarcinoma cell line HeLa (ATCC No CCL-2) as well as transfected cell lines HeLaCEACAM1, HeLaCEACAM3, HeLaCEACAM5, HeLaCEACAM6 and HeLaCEACAM8 used for flow cytometry experiments were cultured at 37° C., 5.0% CO₂ in Dulbecco's modified Eagle's medium supplemented with 10% fetal bovine serum, penicillin (100 U/ml) and dihydrostreptomycin (100 μg/ml). […] Data were acquired with a Cytoflex flow cytometer (Invitrogen) and analyzed with FlowJo software (TreeStar, V7.6.5 for Windows).

For assay [2], the target named is T2, CEACAM1 on transfected HeLa cells (human, UniProt P13688 35-526).
T2 construct: also called HeLa-CEACAM1; HeLa C1
T2 sequence: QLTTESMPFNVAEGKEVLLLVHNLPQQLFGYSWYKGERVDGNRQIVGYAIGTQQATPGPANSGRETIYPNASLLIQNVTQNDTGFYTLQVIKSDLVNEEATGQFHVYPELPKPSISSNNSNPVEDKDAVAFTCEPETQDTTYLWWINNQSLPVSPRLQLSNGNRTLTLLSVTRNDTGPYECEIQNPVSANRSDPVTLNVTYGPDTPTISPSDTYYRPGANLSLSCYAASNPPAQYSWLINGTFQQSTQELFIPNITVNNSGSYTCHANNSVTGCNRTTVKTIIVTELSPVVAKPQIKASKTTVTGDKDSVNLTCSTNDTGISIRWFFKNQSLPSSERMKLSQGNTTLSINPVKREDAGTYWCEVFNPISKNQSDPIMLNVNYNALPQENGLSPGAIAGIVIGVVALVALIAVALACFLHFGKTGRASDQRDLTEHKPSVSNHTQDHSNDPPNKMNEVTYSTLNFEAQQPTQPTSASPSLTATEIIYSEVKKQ
Kind of assay: flow cytometry, transfected HeLa. (In general: A flow cytometer gives signals particle by particle.)

The target of assay [3] is T3, CEACAM6 on transfected HeLa cells (human, UniProt P40199 35-320).
T3 construct: whole, on cells; also called HeLa-CEACAM6; HeLa C6
T3 sequence (looked up): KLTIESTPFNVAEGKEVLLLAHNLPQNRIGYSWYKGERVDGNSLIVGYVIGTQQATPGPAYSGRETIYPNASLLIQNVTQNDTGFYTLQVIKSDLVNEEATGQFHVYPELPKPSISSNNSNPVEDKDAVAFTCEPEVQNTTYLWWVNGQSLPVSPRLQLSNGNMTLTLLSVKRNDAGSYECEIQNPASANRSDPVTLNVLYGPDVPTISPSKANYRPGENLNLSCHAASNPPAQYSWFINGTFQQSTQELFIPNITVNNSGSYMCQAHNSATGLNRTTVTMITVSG
Kind of assay: flow cytometry, transfected HeLa.

B1: CP08H03/Vκ8 S29A (antibody, IgG4, V domains shown)
VH: EVQLLESGGGLVQPGGSLRLSCAASGFIFSSHGMSWVRQAPGKGLEWVATISSGGTYTYYPDSVKGRFTISRDNSKNTLYLQMNSLKAEDTAMYYCARHDFDYFPYWFAHWGQGTLVTVSS
VL: EIVLTQSPATLSLSPGERATLSCRANSAVSYMYWYQQKPGQAPRPWIYLTSNRATGVPARFSGSGSGTDYTLTISSLEPEDFAVYYCQQWSSNPPTFGQGTKLEIK
notes: IgG4 (S241P), kappa; also called CP08_H03/Parent VL; CP08_H03/Parental
As for B1, the binding result in assay [1] is given as “no binding (tested: 100 ug/ml)”.

B2: chimeric antibody VH0/Vκ0 (antibody, IgG4, V domains shown)
VH: EVQLVESGGDLVKPGGSLKLACAASGFIFSSHGMSWVRQTPDKRLEWVATISSGGTYTYYPDSVKGRFTISRDNDKNTLYLQMNSLKSEDTAMYYCARHDFDYDAAWFAYWGQGTLVTVSS
VL: QIVLTQSPALMSASPGVKVTMTCSANSSVSYMYWYRQKPRSSPKPWIYLTSNLASGVPARFSGSGSGTSYSLTISSMEAEDAATYYCQQWSSNPPTFGSGTKLEIK
notes: IgG4 (S241P), kappa; also called VH0/Vκ0 (control); Chimeric VH0/Vκ0
On to B2, for which the “relative amount of cells bound” value in assay [2] was determined as 78; in assay [3], 0.3.
